Data as given in patent publication US6569419B2, “Methods for promoting production of myelin by Schwann cells” (ZymoGenetics, Inc., priority 2000, dated 2003).

What was measured:
[1] = test system: primary rat Schwann cells; assay: Induction of protein zero expression in Schwann cells (Western blot); assay type: cell-based; settings: N2 medium + 1 μM progesterone
Protocol: Primary Schwann cells were prepared as described above using 1-day old CD rat neonates. Schwann cells were grown in DMEM, 10% fetal bovine serum (FBS), plus bovine pituitary extract (PEX) at 20 μg/ml and Forskolin at 2μM. The cells were weaned down to a low serum medium (“Li” medium with 1% FBS added to it). Li medium was comprised of DMEM/F12, 10 μg/ml tranferrin, 5 μg/ml insulin, 2 nM progesterone, 2 μM Forskolin, 20 μg/ml PEX, and 20 ng/ml Heregulin-beta-1 (R & D Systems).
The Schwann cells were grown to confluency in the low serum growth medium on poly-L-lysine-coated 10 cm tissue culture dishes. The cell medium was changed to N2 medium+1 μM progesterone with either Forskolin (Calbiochem) (10 μM and 25 μM) or 100 ng/ml of human Zcyto7. Control medium was Schwann cells in N2+1 μM progesterone for the whole time. Cells were harvested and placed in lysis buffer (125 mM Tris HCl, pH 7.0, 15% sucrose, 4% SDS, 10 mM EDTA, plus added Roche Complete-EDTA-free, protease inhibitor cocktail).
Protein concentrations of cell lysates were determined by Pierce BCA protein assay (Pierce Chemical Co., Rockford, Ill.). Forty micrograms of each cell lysate sample was run on a 4-12% Tris-Glycine gel (Novex) at 125 V for 1 hour 30 minutes, and transferred onto a PVDF membrane in a Hoeffer unit a 550 mAmps for 1 hour. Mouse monoclonal antibody to protein zero was used at 1:1000 dilution (1 μg/am final concentration) to probe the blot. A Vectastain biotin/streptavidin-HRP 2nd antibody system was used for amplication. The blot was developed with Pierce SuperSignal West Pico chemiluminescent substrate and scanned on a Boehringer-Mannheim Lumi-Imager.

[2] = test system: DRG-Schwann cell co-cultures; assay: Production of myelin (MBP immunofluorescence signal density) in DRG-Schwann cell co-cultures; assay type: cell-based, rat; settings: DRG-Schwann cell co-culture, 3.5 weeks
Protocol: Dissociated neuronal cultures from normal rats were established as described by Kleitman et al., Tissue culture methods for the study of myelination, in Culturing Nerve Cells, Banker and Goslin, Eds, pp. 338-378(MIT Press, Cambridge, Mass., 1992). Briefly, DRG were dissected out from the rats, treated with 0.25% trypsin, mechanically dissociated, washed, and resuspended in L15 medium with 10% fetal calf serum. The neurons were plated onto 12-mm glass coverslips coated with ammoniated rat tail collagen (Biomedical Technologies, Inc.) for microscopic evaluation. Starting one day following the dissection, cultures were treated over a 2-week period with three cycles of 5-fluorodeoxyuridine and uridine (both at 10 μM) in standard medium to assure a pure neuronal population. Standard medium consisted of minimum essential medium (MEM) supplemented with 10% FBS, 2 mM glutamine, 0.4% glucose, and 50 ng/m β-nerve growth factor (β-NGB).
Myelinating co-cultures were established by seeding the purified neurons with rat primary Schwann cells as described Einheber, et al., id.
After establishing the myelinating co-cultures, Schwann cells were allowed to proliferate for one week attached to the neurons. The medium was then changed to 15% and 50 μg/ml ascorbate was added to promote basal lamina formation and to initiate myelination. The effect of the Zcyto7 was evaluated for 3.5 weeks in the presence of ascorbate, with the medium changed every two days. Cultures were then fixed in 3.7% formaldehyde for 10 minutes and made permeable in 100% methanol for 15 minutes at −20° C. Following with PBS having 3% BSA, the samples were incubated with mouse anti-MBP antibody (Boehringer-Mannheim) overnight, washed and incubated with Cy3-labeled anti-mouse IgG. Samples were washed, mounted in VECTASHIELD and examined by epifluorescence with a Zeiss AXIOSKOP microscope.
Myelin production was quantitatively and qualitatively evaluated, and myelin density was determined for each of the five replicates per condition. Six representative regions in each sample were captured using a low-level light COHUE digital camera, and the density of fluorescent signal determined using the National Institutes of Health (NIH) Scion Image. The mean and standard deviation of myelin density was calculated for each group and converted to a percentage by dividing by the density seen in the appropriate control culture. Morphometric measurements were carried out using double blind analysis.
Solution A258F was chosen on the basis of the results of experiment 1 was evaluated in experiment 2 for myelin formation in DRG-Schwann co-cultures. […]

primary Schwann cells = assay: MBP induction in pure Schwann cell cultures (Western blot, densitometry); assay type: cell-based, rat; settings: for Mean MBP induction (as percent of progesterone induction): mean ± SD
Protocol: Primary Schwann cell cultures and dorsal root ganglia (DRG)-Schwann cell co-cultures were established. Rat primary Schwann cells were isolated as described by Einheber et al., J. Cell Biol. 123:1223-1236 (1994). Schwann cells were grown in 100 mm poly-L-lysine coated plates in Dulbecco's modified Eagles medium (DMEM) supplemented with 10% fetal bovine serum (FBS), pituitary extract (1 mg/ml) and 10 μM forskolin; up to 80-90% confluency.
The effect of Zcyto7 was tested in pure Schwann cell culture and in a co-culture of DRG and Schwann cells. Primary Schwann cells were grown to 80-90% confluency in 100 mm plates as described above. 12 h before treatment media was changed to 10 ml of N2 (defined medium) with or without 1 μM progesterone. The Zcyto7 solutions were added as 1.1 ml of 10×solution in N2 media, and cells were incubated for 48 hours (h). Cells were washed once with Hanks balanced salt solution (HBSS). The cell suspension was frozen on dry ice, thawed, pelleted and resuspended in 100 μl of lysis buffer, 125 mM tris (hydroxymethyl) aminomethane HCl (Tris HCl) pH7.0, 15% sucrose, 4% sodium dodecyl sulfate (SDS), 10 mM ethylenediaminetetraacetic acid (EDTA). Lysates were boiled for 5 minutes (min) on a water bath and cooled on ice. The protein concentration was determined using 4 μl in a BioRad BCA assay. Each sample was then supplemented with dithiothreitol (DTT) to a final concentration of 10 mM phenylmethylsulfonyl fluoride (PMSF)—to 2 mM, pepstatin and leupeptin—to 10 μg/ml.
60 μg of protein from each sample were separated on 4-12% Tris-Glycin NOVEX gels at 125 V constant for 1.5 h. Each gel contained vehicle control, vehicle supplemented with progesterone control, and randomly chosen samples from treatment groups. Transfer to poly (vinylidine difluoride) (PVFD) membrane was carried out according to the NOVEX electrotransfer protocol, at 25 V, for 40 min. Membranes were rinsed with tris buffered saline (TBS) for 3 min, and blocked with TBS/0.1% TWEEN-20/2% BSA for 1 h. Membranes were then incubated with 1:1000 dilution of anti-MBP mouse monoclonal IgG (Boehringer, Mannheim) in TBS/0.1% TWEEN-20, 0.5% BSA overnight, at 4° C. After washing 4 times for 30 min with TBS/0.1% TWEEN-20, membranes were incubated with anti-mouse horseradish peroxidase conjugate (1:20,000 dilution in TBS/0.1% TWEEN-20, incubated with SUPERSIGNAL chemiluminescent HRP substrate (Pierce Chemical Co., Rockford, Ill.) and exposed to Kodak X-Ray film for 15-20 min.
Density of myelin basic protein (MBP) bands was measured on LYNX Densitometer (Applied imaging) with ILLUMA System and expressed as percent progesterone-induced control MBP.
In experiment 1, the effect of the 4 different solutions of Zcyto7 on MBP accumulation was evaluated in pure Schwann cell cultures, with and without progesterone pretreatment. Solution A275F was evaluated in experiment 1 at 1 ng/ml, 10 ng/ml, 100 ng/ml and 1 μg/ml.
Four controls were included in each experiment: test vehicle alone, vehicle supplemented with progesterone, vehicle supplemented with IL-17, and vehicle supplemented with progesterone and IL-17 [See J. Immunol, 150:5445-5456 (1993)]. Three replicates were set up per each condition.

[3] = test system: mRNA that encodes myelin basic protein and protein zero; assay: Hybridization studies: mRNA levels that encode myelin basic protein and protein zero; assay type: cell-based
Protocol: The expression of myelin basic protein and protein zero was also determined by measuring the mRNA levels that encode myelin basic protein and protein zero.

`C=C[C@@]1(C)CC(=O)[C@]2(O)[C@@]3(C)[C@@H](O)CCC(C)(C)[C@@H]3[C@H](O)[C@H](OC(C)=O)[C@@]2(C)O1` [Forskolin] was tested, and the “Relative percentage of P zero protein (media control = 100%)” value ([1]; 10 μM) was 199% and the “Relative percentage of P zero protein (media control = 100%)” value ([1]; 25 μM) was 30%.

“IL-17: Interleukin-17; solution at 50 μg/ml of PBS, pH 7.0; control in the experiments” was tested, and the “MBP Signal Density (mean ± SD)” value ([2]; Ascorbic acid (AA) + 10 ng/ml) was 11.65 ± 0.78, the “Mean MBP induction (as percent of progesterone induction)” value (primary Schwann cells; Prog + IL-17 control, in column A258 F) was 199.30 ± 23.21% of progesterone induction and the “Mean MBP induction (as percent of progesterone induction)” value (primary Schwann cells; Prog + IL-17 control, in column A275 F) was 214.50 ± 103.80% of progesterone induction. For the same molecule, the “Mean MBP induction (as percent of progesterone induction)” value (primary Schwann cells; Prog + IL-17 control, in column A311 F) was 180.60 ± 123.80% of progesterone induction.

B1: human Zcyto7: Human Zcyto7 polypeptide (SEQ ID NO: 2), identified by its homology to Interleukin-17; used at 100 ng/ml (protein)
chain: MDWPHNLLFLLTISIFLGLGQPRSPKSKRKGQGRPGPLAPGPHQVPLDLVSRMKPYARMEEYERNIEEMVAQLRNSSELAQRKCEVNLQLWMSNKRSLSPWGYSINHDPSRIPVDLPEARCLCLGCVNPFTMQEDRSMVSVPVFSQVPVRRRLCPPPPRTGPCRQRAVMETIAVGCTCIF
With B1 the “Relative percentage of P zero protein (media control = 100%)” value ([1]; 100 ng/ml) was 173%.

B2: Zcyto7: Zcyto7 polypeptide; species and solution not stated in Example 6 (protein)
chain: B1 chain
With B2 the “mRNA that encodes for myelin basic protein” value [3] was “upregulated” and the “mRNA that encodes for protein zero” value [3] was “upregulated”.

B3: A258 F: Solution of human Zcyto7 expressed in BHK cells, 0.603 mg/ml of PBS at pH 6.0 (protein, UniProt Q9UHF5 21-180, looked up)
Interleukin-17B: QPRSPKSKRKGQGRPGPLAPGPHQVPLDLVSRMKPYARMEEYERNIEEMVAQLRNSSELAQRKCEVNLQLWMSNKRSLSPWGYSINHDPSRIPVDLPEARCLCLGCVNPFTMQEDRSMVSVPVFSQVPVRRRLCPPPPRTGPCRQRAVMETIAVGCTCIF
In the case of B3, the “MBP Signal Density (mean ± SD)” value ([2]; Ascorbic acid (AA) + 1 ng/ml) is reported as 20.04 ± 8.55, the “MBP Signal Density (mean ± SD)” value ([2]; Ascorbic acid (AA) + 10 ng/ml) is reported as 47.74 ± 23.60 and the “MBP Signal Density (mean ± SD)” value ([2]; Ascorbic acid (AA) + 100 ng/ml) is reported as 74.74 ± 19.22. For the same molecule, the “Mean MBP induction (as percent of progesterone induction)” value (primary Schwann cells; 1 ng/ml, without progesterone, pure Schwann cells, 48 h) was 81.47 ± 7.75% of progesterone induction, the “Mean MBP induction (as percent of progesterone induction)” value (primary Schwann cells; 10 ng/ml, without progesterone, pure Schwann cells, 48 h) was 41.59 ± 32.29% of progesterone induction and the “MBP accumulation (in words)” value (primary Schwann cells; 100 ng/ml, in the absence of progesterone pretreatment) was “significantly induced MBP accumulation”. For the same molecule, the “Mean MBP induction (as percent of progesterone induction)” value (primary Schwann cells; 100 ng/ml, without progesterone, pure Schwann cells, 48 h) was 117.00 ± 42.89% of progesterone induction, the “Mean MBP induction (as percent of progesterone induction)” value (primary Schwann cells; 1 μg/ml, without progesterone, pure Schwann cells, 48 h) was 152.80 ± 27.95% of progesterone induction and the “Mean MBP induction (as percent of progesterone induction)” value (primary Schwann cells; Prog + 1 ng/ml, pure Schwann cells, 48 h) was 117.00 ± 15.83% of progesterone induction. For the same molecule, the “Mean MBP induction (as percent of progesterone induction)” value (primary Schwann cells; Prog + 10 ng/ml, pure Schwann cells, 48 h) was 187.20 ± 18.43% of progesterone induction, the “Mean MBP induction (as percent of progesterone induction)” value (primary Schwann cells; Prog + 100 ng/ml, pure Schwann cells, 48 h) was 265.90 ± 32.09% of progesterone induction and the “Mean MBP induction (as percent of progesterone induction)” value (primary Schwann cells; Prog + 1 μg/ml, pure Schwann cells, 48 h) was 174.30 ± 25.59% of progesterone induction. For the same molecule, the “Concentration of maximal effect on MBP accumulation” value (primary Schwann cells; pure Schwann cell cultures) was 100 ng/mL and the “MBP induction (in words)” value (primary Schwann cells; pure Schwann cell cultures) was “induced MBP accumulation in dose-dependent manner”.
